According to patent US20220073599A1 (Hoffmann-La Roche, published 2022):
Changes are numbered by the printed parent chain. Where two headings read alike, the source gives them in different places.

T1: human VEGFA-121-His (human, UniProt P15692 181-395)
T1 construct: Prepared in-house; not shown: His tag
T1 sequence: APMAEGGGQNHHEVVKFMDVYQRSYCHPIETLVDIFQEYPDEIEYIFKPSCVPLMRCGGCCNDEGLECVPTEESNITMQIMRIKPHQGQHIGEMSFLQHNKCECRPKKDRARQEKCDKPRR

T2: human VEGFA-121 (human, UniProt P15692 181-395)
T2 sequence: T1 sequence

T3: human Ang2-RBD (human, UniProt O15123 275-496, limits assumed)
T3 construct: also called Human ANG2 (SPR); Angiopoietin 2-RBD
T3 sequence: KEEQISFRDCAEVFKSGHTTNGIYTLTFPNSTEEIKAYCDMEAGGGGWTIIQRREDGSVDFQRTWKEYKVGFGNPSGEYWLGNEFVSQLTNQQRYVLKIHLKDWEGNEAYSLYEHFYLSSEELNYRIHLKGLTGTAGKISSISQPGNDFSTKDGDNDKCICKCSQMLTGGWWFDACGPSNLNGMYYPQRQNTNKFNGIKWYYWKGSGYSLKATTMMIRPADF

T4: ANG2 (human, UniProt O15123 19-496, limits assumed)
T4 sequence: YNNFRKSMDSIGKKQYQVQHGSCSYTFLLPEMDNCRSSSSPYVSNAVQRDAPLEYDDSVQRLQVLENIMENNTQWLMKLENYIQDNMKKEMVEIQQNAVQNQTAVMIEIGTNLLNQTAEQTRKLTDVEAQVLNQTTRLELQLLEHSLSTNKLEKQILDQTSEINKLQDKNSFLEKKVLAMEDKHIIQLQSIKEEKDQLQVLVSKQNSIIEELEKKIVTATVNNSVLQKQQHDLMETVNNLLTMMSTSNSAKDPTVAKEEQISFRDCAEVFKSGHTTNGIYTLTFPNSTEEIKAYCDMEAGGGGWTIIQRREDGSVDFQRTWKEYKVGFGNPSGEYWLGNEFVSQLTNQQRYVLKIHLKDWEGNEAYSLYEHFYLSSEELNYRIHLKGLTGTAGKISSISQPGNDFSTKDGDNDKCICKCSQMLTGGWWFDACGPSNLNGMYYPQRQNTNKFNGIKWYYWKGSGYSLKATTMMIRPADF

B1: bispecific anti-VEGF-A/anti-ANG2 Fab fragment P1AA0902 (Fab, V domains shown)
VH: DDHLVESGGGLVKPGGSLRLSCATADFFEYDDMSWVRQAPGKGLEWVGSISGRGDHKYLNTKFIGRFTISRDDSKNTLYLQMNSLRAEDTAVYYCARDVGFFDWWGQGTLVTVSS
VL: AIYMHQEPSSLSASVGDRVTITCHGSYWLNSELAWYQQKPGKAPKLLIFDGDFKVFDVPSRFSGSGSHEDYTLTISSLQPEDFATYYCQQYRYHPYTFGHGTKVEIKR
notes: Bispecific Fab with two paratopes in one VH/VL pair
B2: bispecific anti-VEGF-A/anti-ANG2 Fab fragment P1AA8906 (Fab, V domains shown)
VH: DFQLVESGGGLVKPGGSLRLSCAASYEFEYDDMSWVRQAPGKGLEWVGSISPKGGSTYYNTKFIGRFTISRDNSKNTLYLQMNSLRAEDTAVYYCARDVGFFDMWGQGTLVTVSS
VL: B1 VL with N30S, S31N, E32Y, G51A, D52R, F53W, K54L, F56H, D57G
notes: Bispecific Fab with two paratopes in one VH/VL pair (DutaFab); CH1 and Ckappa
B3: bispecific anti-VEGF-A/anti-ANG2 Fab fragment P1AD9820 (Fab, V domains shown)
VH: B1 VH with D1S, D2E, G52P, R53K
VL: B1 VL with L33V, F56Y, D57E
notes: Bispecific Fab with two paratopes in one VH/VL pair; also called P1AD9820 Fab

Columns and labels:
human VEGFA-121-His [1] = molecular target: T1, human VEGFA-121-His; assay: SPR, VEGF-A121-His captured by anti-His antibody, Fab injected, single cycle kinetics
Procedure: (§1) An anti-His capturing antibody (GE Healthcare 28995056) was immobilized to a Series S Sensor Chip C1 (GE Healthcare BR100535) using standard amine coupling chemistry resulting in a surface density of approximately 600 resonance units (RU). As running and dilution buffer, HBS-P+ (10 mM HEPES, 150 mM NaCl pH 7.4, 0.05% Surfactant P20) was used. […] A dilution series of the tested antibody (3.7-300 nM, 1:3 dilution) was successively injected for 60 s each, dissociation was monitored for 3600 s at a flow rate of 30 μl/min (single cycle kinetics). The surface was regenerated by injecting 10 mM Glycine pH 1.5 for 60 s at a flow of 5 μl/min. […] Curve fitting was performed using the 1:1 Langmuir binding model within the Biacore® evaluation software.
(§2) Binding kinetics to human VEGF-A and human ANG2 for the candidate antibodies were assessed as described above using the indicated Fab fragments (amino acid sequence as illustrated in Table 4).

human VEGFA-121-His [2] = molecular target: T1, human VEGFA-121-His; assay: KinExA equilibrium titration in solution, constant VEGFA-121-His
Procedure: All KinExA® experiments were performed at room temperature (RT) using PBS pH 7.4 with 0.01% BSA and 0.01% Tween® 20 (BioRad, #161-0781) as running buffer. […] A flow rate of 0.25 ml/min was used. […] Antigen-antibody complexes were incubated at RT for at least 8 h to allow equilibrium to be reached. […] Each sample was measured in duplicates for all equilibrium experiments. The KD was obtained from non-linear regression analysis of the data using a one-site homogeneous binding model contained within the KinExA® software (Version 4.0.11) using the “standard analysis” method. The software calculates the KD and determines the 95% confidence interval by fitting the data points to a theoretical KD curve. The 95% confidence interval is given as KD low and KD high.
as §2

human VEGFA-121 [3] = molecular target: T2, human VEGFA-121; assay: cell-based or functional assay
human Ang2-RBD = molecular target: T3, human Ang2-RBD; assay: SPR, Fab captured by anti-Fab antibody; 2) Ang2-RBD alone, then buffer; final signal in % of the sum of the single signals
Procedure: (§3) The bispecific Fab was captured by injecting a 6.5 μg/ml solution for 60 sec at a flow of 5 μl/min. Independent binding of each ligand to the bispecific Fab was analysed by determining the active binding capacity for each ligand, either added sequentially or simultaneously (flow of 10 μl/min): [0359] […] [0360] 2) Injection of human Ang2 with a concentration of 5 μg/ml for 60 sec (identifies single binding of the antigen) [0361] […] [0362] […] [0363]
(§4) Independent binding of candidate antibodies to human VEGF-A and human ANG2 was analysed by SPR as described above in the “Materials & general methods” section.

human VEGFA-121 [4] = molecular target: T2, human VEGFA-121; assay: SPR, Fab captured by anti-Fab antibody; 4) Ang2-RBD first, then VEGFA-121 (binding of VEGFA-121 in the presence of Ang2); final combined signal of both antigens
Procedure: as §3, §4

human VEGFA-121-His [5] = molecular target: T1, human VEGFA-121-His; assay: SPR, VEGF-A121-His captured by anti-His antibody, Fab injected, single cycle kinetics, 1:1 fit
Procedure: as §1, §2

ANG2 = molecular target: T4, ANG2; assay: cell-based or functional assay
human VEGFA-121-His [6] = molecular target: T1, human VEGFA-121-His; assay: SPR, VEGF-A121-His captured by anti-His antibody, Fab injected, single cycle kinetics, 1:1 fit; remark: listed apart in the source
Procedure: as §1

human VEGFA-121-His [7] = molecular target: T1, human VEGFA-121-His; assay: SPR, VEGF-A121-His captured by anti-His antibody, Fab injected, single cycle kinetics; marked outside of Biacore specification
Procedure: as §1

human VEGFA-165 = molecular target: T5, human VEGFA-165 (human, UniProt P15692-4 27-191); assay: KinExA, VEGFA-165; set-up for VEGFA-165 not described
T5 construct: also called hVEGF-A165

Binder	t1/2 (human VEGFA-121-His [1]) [min]	Kd (human VEGFA-121-His [2]) [nM]	IC50, Reporter Gene Assay (Hek_NFAT_KDR_Luc cells stimulated with VEGF-A121, luminescence) (human VEGFA-121 [3]) [nM]	Signal [%] (human Ang2-RBD)	Signal [%] (human VEGFA-121 [4])	kon (human VEGFA-121-His [5]) [M⁻¹ s⁻¹]	IC50, pTie2-Assay (Tie2 phosphorylation in Hek293 cells expressing Tie2, stimulated with Ang-2) (ANG2) [nM]	kon (human VEGFA-121-His [6]) [M⁻¹ s⁻¹]	Kd (human VEGFA-121-His [7]) [pM]	koff (human VEGFA-121-His [7]) [s⁻¹]	Kd (human VEGFA-165) [pM]
B1	1400	0.0114	1.09	50	90	737000	7				
B2	2550	0.0109		50	91	1.66e+06		1.66e+06	3	4.53e-06	
B3	1990	0.00385	1.07	50	92	727000	10				~2
